Each block holds one binder with its values, some of them ahead of it.
Assays:
[1] = molecular target: HLA-A2 presenting TdT peptide-3 (…) on target cells (human); test: cell-based or functional assay
[2] = molecular target: T1, human terminal deoxynucleotidyl transferase (TdT) peptide on HLA-A*02:01 (human); test: cytokine release
T1 peptide: ALYDKTKRI

[3] = molecular target: T2, human terminal deoxynucleotidyl transferase (TdT) peptide on HLA-A*02:01 (human); test: multimer staining
T2 peptide: ALYDKTKRIFL

[4] = molecular target: HLA-A2 presenting TdT peptide-1 (…) on target cells (human); test: cell-based or functional assay
[5] = molecular target: T1, human terminal deoxynucleotidyl …; test: multimer staining

B1: T3 TCR (TCR, V domains shown)
V domain 1: SQQGEEDPQALSIQEGENATMNCSYKTSINNLQWYRQNSGRGLVHLILIRSNEREKHSGRLRVTLDTSKKSSSLLITASRAADTASYFCATDAGAYSGGGADGLTFGKGTHLIIQP
V domain 2: EAQVTQNPRYLITVTGKKLTVTCSQNMNHEYMSWYRQDPGLGLRQIYYSMNVEVTDKGDVPEGYKVSRKEKRNFPLILESPSPNQTSLYFCASSLSSSYNEQFFGPGTRLTVLE
EC50 of activation of T3 cells following co-incubation with peptide-pulsed T2 lymphoblast cells [1]: 1.2 nM

B3: T1 TCR (TCR, V domains shown)
V domain 1: EDQVTQSPEALRLQEGESSSLNCSYTVSGLRGLFWYRQDPGKGPEFLFTLYSAGEEKEKERLKATLTKKESFLHITAPKPEDSATYLCAVQASSNSGYALNFGKGTSLLVTP
V domain 2: SAVISQKPSRDICQRGTSLTIQCQVDSQVTMMFWYRQQPGQSLTLIATANQGSEATYESGFVIDKFPISRPNLTFSTLTVSNMSPEDSSIYLCSVEPGYADTQYFGPGTRLTVLE
EC50 of activation of T1 cells following co-incubation with peptide-pulsed T2 lymphoblast cells [4]: 5.8 nM

Next, values leading:

binding result [2]: no recognition | binding result [3]: recognises
B2: T3 TCR (TCR, V domains shown)
Valpha: B1 V domain 1
Vbeta: EAQVTQNPRYLITVTGKKLTVTCSQNMNHEYMSWYRQDPGLGLRQIYYSMNVEVTDKGDVPEGYKVSRKEKRNFPLILESPSPNQTSLYFCASSLSSSYNEQFFGPGTRLTVL

binding result [5]: recognises
B4: T1 TCR (TCR, V domains shown)
Valpha: B3 V domain 1
Vbeta: SAVISQKPSRDICQRGTSLTIQCQVDSQVTMMFWYRQQPGQSLTLIATANQGSEATYESGFVIDKFPISRPNLTFSTLTVSNMSPEDSSIYLCSVEPGYADTQYFGPGTRLTVL

Source: patent US20250170175A1 (OSLO UNIVERSITETSSYKEHUS HF, published 2025)
